From patent US20260217863A1, “ANTIBODY OR PEPTIDE BINDING SPECIFICALLY TO RNASE A, IMMUNOASSAY DEVICE AND METHOD FOR DETECTING RNASE A, AND METHOD FOR COLLECTING RNASE A” (UIF (University Industry Foundation), Yonsei University, priority 2022, published 2026) come the findings set out here.

Experiment [1] has as its target Ribonuclease A (Type II-A) from bovine pancreas (bovine) (UniProt P61823). The experiment in a line: flow cytometry, E. coli surface-displayed Fv, titration of fluorescently labeled RNase A, fit with an adsorption model. A general note: A flow cytometer gives signals particle by particle.
Experiment [2] shares this target. Nature of the experiment: flow cytometry (FL1-H) of E. coli displaying the Fv variant, incubated with fluorescence-labeled RNase-A.

Chain of Ribonuclease A (Type II-A) from bovine pancreas (bovine) (P61823 27-150): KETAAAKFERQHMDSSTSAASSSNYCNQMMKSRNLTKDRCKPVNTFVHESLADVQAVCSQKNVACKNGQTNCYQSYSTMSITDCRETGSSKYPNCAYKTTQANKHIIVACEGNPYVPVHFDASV

B1: Fv variant clone 5, surface-expressed on the outer membrane of E. coli (protein, part only; not given: AIDA-1 display anchor and linker, not shown: another chain or arm of the molecule; large carriers; small tags and cut ends)
VH: EVQLVESAAEVRRPGASVKITCKASGYSFSTYGIQWMRQAPGQRPEWLGWIHAGTGGTKYSRKFQGRITITRDTSANTVYLDLNSLTSEDTAVYYCARCGPDSDVMTDFWGQGTTVTVSS
B1: the Kd (as a rule, the concentration at which binding is half-saturated) in experiment [1] came out at 23.8 µM. In experiment [2], this molecule gave a fluorescence intensity, at 3.125 µM fluorescence-labeled RNase-A of 31.5 a.u; a fluorescence intensity, at 6.25 µM fluorescence-labeled RNase-A of 44.7 a.u; a fluorescence intensity, at 12.5 µM fluorescence-labeled RNase-A of 72.3 a.u; a fluorescence intensity, at 25 µM fluorescence-labeled RNase-A of 108 a.u. In experiment [2], this molecule returned a fluorescence intensity, at 50 µM fluorescence-labeled RNase-A of 167 a.u and a fluorescence intensity, at 100 µM fluorescence-labeled RNase-A of 196 a.u.

B2: Fv variant clone 39, surface-expressed on the outer membrane of E. coli (protein, part only; not given: AIDA-1 display anchor and linker, not shown: another chain or arm of the molecule; large carriers; small tags and cut ends)
VH: EVQLVESAAEVRRPGASVKITCKASGYSFSTYGIQWMRQAPGQRPEWLGWIHAGTGGTKYSRKFQGRITITRDTSANTVYLDLNSLTSEDTAVYYCARDGTAKKSRKDDWGQGTTVTVSS
As for B2, the Kd in experiment [1] is 28.7 µM. Further, in experiment [2], the fluorescence intensity, at 3.125 µM fluorescence-labeled RNase-A worked out at 15.5 a.u; the fluorescence intensity, at 6.25 µM fluorescence-labeled RNase-A amounted to 19.9 a.u; the fluorescence intensity, at 12.5 µM fluorescence-labeled RNase-A came out at 23.3 a.u; the fluorescence intensity, at 25 µM fluorescence-labeled RNase-A was 31.8 a.u. In addition, in experiment [2], the fluorescence intensity, at 50 µM fluorescence-labeled RNase-A came to 37.8 a.u and the fluorescence intensity, at 100 µM fluorescence-labeled RNase-A was determined as 51.9 a.u.

B3: Fv variant clone 23, surface-expressed on the outer membrane of E. coli (protein, part only; not given: AIDA-1 display anchor and linker, not shown: another chain or arm of the molecule; large carriers; small tags and cut ends)
VH: EVQLVESAAEVRRPGASVKITCKASGYSFSTYGIQWMRQAPGQRPEWLGWIHAGTGGTKYSRKFQGRITITRDTSANTVYLDLNSLTSEDTAVYYCARYGPVGRVKRDDWGQGTTVTVSS
In turn, B3 had a Kd in experiment [1] of 29.4 µM. For the same molecule, in experiment [2], the fluorescence intensity, at 3.125 µM fluorescence-labeled RNase-A is 14 a.u; the fluorescence intensity, at 6.25 µM fluorescence-labeled RNase-A stood at 17.2 a.u; the fluorescence intensity, at 12.5 µM fluorescence-labeled RNase-A was 23.8 a.u; the fluorescence intensity, at 25 µM fluorescence-labeled RNase-A stood at 37.5 a.u. In experiment [2], the fluorescence intensity, at 50 µM fluorescence-labeled RNase-A was 47.9 a.u and the fluorescence intensity, at 100 µM fluorescence-labeled RNase-A was found to be 69.7 a.u.
